# According to patent US12295987B2, “Method of using a GIP/GLP1 co-agonist for diabetes” (Eli Lilly and Company, priority 2018, dated 2025):
# Target: T1, human gastric inhibitory peptide receptor (hGIPR) (Homo sapiens, UniProt P48546)
# T1 construct: expressed in transfected cells; host or cells: HEK293
# T1 sequence (P48546 22-466): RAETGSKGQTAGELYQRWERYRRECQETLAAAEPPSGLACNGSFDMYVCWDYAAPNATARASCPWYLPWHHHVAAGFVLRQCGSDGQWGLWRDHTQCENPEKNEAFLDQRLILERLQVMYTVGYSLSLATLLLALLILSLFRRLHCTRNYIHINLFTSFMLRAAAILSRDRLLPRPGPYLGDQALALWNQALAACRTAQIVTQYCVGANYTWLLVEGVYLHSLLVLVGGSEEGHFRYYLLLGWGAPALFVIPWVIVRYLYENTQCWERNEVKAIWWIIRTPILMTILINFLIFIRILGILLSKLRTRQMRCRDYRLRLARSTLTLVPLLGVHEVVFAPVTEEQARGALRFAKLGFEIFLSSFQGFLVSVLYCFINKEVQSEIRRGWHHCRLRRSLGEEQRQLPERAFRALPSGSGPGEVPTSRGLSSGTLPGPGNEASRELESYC
# Assay: cAMP pharmacological functional assay in presence of 0.1% casein, hGIPR
# Assay type: cell-based
# Conditions: ratio of hGIPR to hGLP1R cAMP EC50 ratios
# Protocol: Each receptor over-expressing cell line (20 μl) is treated with the test peptide in DMEM (Gibco Cat #31053) supplemented with 0.1% Casein (Sigma Cat #C4765), 250 μM IBMX, 1× GlutaMAX™ (Gibco Cat #35050), and 20 mM HEPES (HyClone Cat #SH30237.01) in a 20 μl assay volume. […] EC50 is the concentration of compound causing half-maximal simulation in a dose response curve. A relative EC50 value is derived by non-linear regression analysis using the percent maximal response vs. the concentration of peptide added, fitted to a four-parameter logistic equation.
# Intracellular cAMP levels are determined by extrapolation using a standard curve. Dose response curves of compounds are plotted as the percentage of stimulation normalized to minimum (buffer only) and maximum (maximum concentration of each control ligand) values and analyzed using a four parameter non-linear regression fit with a variable slope (Genedata Screener 13). EC50 is the concentration of compound causing half-maximal simulation in a dose response curve.
# EC50 is the concentration of compound causing half-maximal simulation in a dose response curve.
row,Substance,[hGIPR/hGLP1R] EC50 Ratio
1,"Y-Aib-EGT-αMeF(2F)-TSD-4Pal-SI-αMeL-LDEK((2-[2-(2-Amino-ethoxy)-ethoxy]-acetyl)2-(γGlu)-CO—(CH2)16—CO2H)AQ-Aib-EFI-(D-Glu)-YLIEGGPSSGAPPPS-NH2 (YXEGTXTSDXSIXLDEKAQXEFIXYLIEGGPSSGAPPPS; Aib, αMeF(2F), 4Pal, αMeL, D-Glu; lipidated K; amide; (2)..(2) Xaa at position 2 is Aib; (6)..(6) Xaa at position 6 is alpha-methyl-Phe(2F); (10)..(10) Xaa at position 10 is 4Pal; (13)..(13) Xaa at position 13 is alpha-methyl-Leu; MOD_RES (17)..(17) Lys at position 17 is chemically modified by conjugation of the epsilon-amino group of the Lys side chain with (2-[2-(2-amino-ethoxy)-ethoxy]-acetyl)2-(gamma-Glu)-CO-(CH2)16- CO2H; (20)..(20) Xaa at posit) [Peptide 204]",6.65
2,"Y-Aib-EGT-αMeF(2F)-TSD-4Pal-SI-αMeL-LDEK((2-[2-(2-Amino-ethoxy)-ethoxy]-acetyl)2-(γGlu)-CO—(CH2)18—CO2H)AQ-Aib-EFI-(D-Glu)-YLIEGGPSSGAPPPS-NH2 (YXEGTXTSDXSIXLDEKAQXEFIXYLIEGGPSSGAPPPS; Aib, αMeF(2F), 4Pal, αMeL, D-Glu; lipidated K; amide; (2)..(2) Xaa at position 2 is Aib; (6)..(6) Xaa at position 6 is alpha-methyl-Phe(2F); (10)..(10) Xaa at position 10 is 4Pal; (13)..(13) Xaa at position 13 is alpha-methyl-Leu; MOD_RES (17)..(17) Lys at position 17 is chemically modified by conjugation of the epsilon-amino group of the Lys side chain with (2-[2-(2-amino-ethoxy)-ethoxy]-acetyl)2-(gamma-Glu)-CO-(CH2)18- CO2H; (20)..(20) Xaa at posit) [Peptide 182]",5.01
3,"Y-Aib-EGT-αMeF(2F)-TSD-4Pal-SI-αMeL-LDEK((2-[2-(2-Amino-ethoxy)-ethoxy]-acetyl)2-(γGlu)-CO—(CH2)18—CO2H)AQ-Aib-EFI-Aib-YLIEGGPSSGAPPPS-NH2 (YXEGTXTSDXSIXLDEKAQXEFIXYLIEGGPSSGAPPPS; Aib, αMeF(2F), 4Pal, αMeL; lipidated K; amide; (2)..(2) Xaa at position 2 is Aib; (6)..(6) Xaa at position 6 is alpha-methyl-Phe(2F); (10)..(10) Xaa at position 10 is 4Pal; (13)..(13) Xaa at position 13 is alpha-methyl-Leu; MOD_RES (17)..(17) Lys at position 17 is chemically modified by conjugation of the epsilon-amino group of the Lys side chain with (2-[2-(2-amino-ethoxy)-ethoxy]-acetyl)2-(gamma-Glu)-CO-(CH2)18- CO2H; (20)..(20) Xaa at posit) [Peptide 189]",3.61
4,"Y-Aib-EGT-αMeF(2F)-TSD-4Pal-SI-αMeL-LDEK((2-[2-(2-Amino-ethoxy)-ethoxy]-acetyl)2-(εK)-CO—(CH2)18—CO2H)AQ-Aib-EFI-(D-Glu)-YLIEGGPSSGAPPPS-NH2 (YXEGTXTSDXSIXLDEKAQXEFIXYLIEGGPSSGAPPPS; Aib, αMeF(2F), 4Pal, αMeL, D-Glu; εK-lipidated K; amide; (2)..(2) Xaa at position 2 is Aib; (6)..(6) Xaa at position 6 is alpha-methyl-Phe(2F); (10)..(10) Xaa at position 10 is 4Pal; (13)..(13) Xaa at position 13 is alpha-methyl-Leu; MOD_RES (17)..(17) Lys at position 17 is chemically modified by conjugation of the epsilon-amino group of the Lys side chain with (2-[2-(2-Amino-ethoxy)-ethoxy]-acetyl)2-(epsilon-Lys)-CO-(CH2)18- CO2H; (20)..(20) Xaa at pos) [Peptide 207]",3.87
5,"Y-Aib-EGT-αMeF(2F)-TSD-4Pal-SI-αMeL-LDEK((2-[2-(2-Amino-ethoxy)-ethoxy]-acetyl)2-CO—(CH2)16—CO2H)AQ-Aib-EFI-(D-Glu)-YLIEGGPSSGAPPPS-NH2 (YXEGTXTSDXSIXLDEKAQXEFIXYLIEGGPSSGAPPPS; Aib, αMeF(2F), 4Pal, αMeL, D-Glu; lipidated K; amide; (2)..(2) Xaa at position 2 is Aib; (6)..(6) Xaa at position 6 is alpha-methyl-Phe(2F); (10)..(10) Xaa at position 10 is 4Pal; (13)..(13) Xaa at position 13 is alpha-methyl-Leu; MOD_RES (17)..(17) Lys at position 17 is chemically modified by conjugation of the epsilon-amino group of the Lys side chain with (2-[2-(2-amino-ethoxy)-ethoxy]-acetyl)2-CO-(CH2)16-CO2H; (20)..(20) Xaa at position 20 is Aib) [Peptide 205]",3.91
6,"Y-Aib-EGT-αMeF(2F)-TSD-4Pal-SI-αMeL-LDEK((2-[2-(2-Amino-ethoxy)-ethoxy]-acetyl)2CO—(CH2)18—CO2H)AQ-Aib-EFI-(D-Glu)-YLIEGGPSSGAPPPS-NH2 (YXEGTXTSDXSIXLDEKAQXEFIXYLIEGGPSSGAPPPS; Aib, αMeF(2F), 4Pal, αMeL, D-Glu; lipidated K; amide; (2)..(2) Xaa at position 2 is Aib; (6)..(6) Xaa at position 6 is alpha-methyl-Phe(2F); (10)..(10) Xaa at position 10 is 4Pal; (13)..(13) Xaa at position 13 is alpha-methyl-Leu; MOD_RES (17)..(17) Lys at position 17 is chemically modified by conjugation of the epsilon-amino group of the Lys side chain with (2-[2-(2-amino-ethoxy)-ethoxy]-acetyl)2-CO-(CH2)18-CO2H; (20)..(20) Xaa at position 20 is Aib) [Peptide 206]",3.35
7,"Y-Aib-EGT-αMeF(2F)-TSD-4Pal-SI-αMeL-LDKK((2-[2-(2-Amino-ethoxy)-ethoxy]-acetyl)2-(γGlu)-CO—(CH2)18—CO2H)AQ-Aib-EFI-(D-Glu)-YLIEGGPSSGAPPPS-NH2 (YXEGTXTSDXSIXLDKKAQXEFIXYLIEGGPSSGAPPPS; Aib, αMeF(2F), 4Pal, αMeL, D-Glu; lipidated K; amide; (2)..(2) Xaa at position 2 is Aib; (6)..(6) Xaa at position 6 is alpha-methyl-Phe(2F); (10)..(10) Xaa at position 10 is 4Pal; (13)..(13) Xaa at position 13 is alpha-methyl-Leu; MOD_RES (17)..(17) Lys at position 17 is chemically modified by conjugation of the epsilon-amino group of the Lys side chain with (2-[2-(2-amino-ethoxy)-ethoxy]-acetyl)2-(gamma-Glu)-CO-(CH2)18- CO2H; (20)..(20) Xaa at posit) [Peptide 203]",7.38
